# Experimental data reported in FireProtDB (doi:10.1002/pro.164).
# B1: wild type, Q6T418 (protein)
# chain: MERKTFSFLFLLLLVLASDVAVERGEARTCMIKKEGWGKCLIDTTCAHSCKNRGYIGGNCKGMTRTCYCLVNC
# Settings: Vigna radiata; pH 7; 37 °C; GdnHCl; Fluorescence; Tris-HCl 10 mM; NaCl 100 mM; whole UniProt chain shown
protein,measurement,value
B1,denaturant midpoint (higher = more stable),4.17 M
